How the values were obtained:
[1] = target: T1, cyno PRLR ECD-his6 protein (cyno); assay: ELISA on ECD
T1 chain: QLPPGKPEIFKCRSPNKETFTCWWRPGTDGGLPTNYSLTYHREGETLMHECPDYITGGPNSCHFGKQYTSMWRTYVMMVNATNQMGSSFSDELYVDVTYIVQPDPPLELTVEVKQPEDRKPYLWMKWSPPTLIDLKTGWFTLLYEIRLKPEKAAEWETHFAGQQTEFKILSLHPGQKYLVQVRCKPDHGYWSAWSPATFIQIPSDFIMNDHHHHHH
Description: (§1) Plates were blocked for 1 hour with Superblock (Pierce) and washed (3×) with wash buffer (lx PBS (pH 7.4), 0.05% Tween 20). ECD proteins were bound to the appropriate antibody (1 hour) in binding buffer (wash buffer plus 10% Superblock), washed (3×, wash buffer), and then incubated with serial dilutions of antibodies (1 hour) in binding buffer. After washing (3×, wash buffer), secondary antibodies conjugated to HRP were bound (1 hour) in binding buffer, washed (3×, wash buffer), and incubated with TMB substrate (Pierce) to develop signal for 3-5 minutes, stopped with 2N H₂SO₄ and scanned at […]. Curves were fit with GraphPad 5 (Prizm) and EC50's were determined with curve fitting function of GraphPad 5.

[2] = target: T2, human PRLR ECD-Fc fusion protein (human, UniProt P16471 25-233); assay: ELISA on ECD
T2 construct: not shown: Fc region (captured by goat anti-human Fc)
T2 sequence: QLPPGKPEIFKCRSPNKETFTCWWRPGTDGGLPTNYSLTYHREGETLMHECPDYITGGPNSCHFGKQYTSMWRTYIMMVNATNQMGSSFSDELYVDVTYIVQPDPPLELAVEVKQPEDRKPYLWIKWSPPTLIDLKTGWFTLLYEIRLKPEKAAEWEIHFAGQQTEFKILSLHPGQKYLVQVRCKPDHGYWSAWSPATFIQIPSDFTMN
Description: as §1

human PRLR on cells = target: T3, human PRLR on cells (human, UniProt P16471 25-622); assay: cell-based or functional assay
T3 sequence: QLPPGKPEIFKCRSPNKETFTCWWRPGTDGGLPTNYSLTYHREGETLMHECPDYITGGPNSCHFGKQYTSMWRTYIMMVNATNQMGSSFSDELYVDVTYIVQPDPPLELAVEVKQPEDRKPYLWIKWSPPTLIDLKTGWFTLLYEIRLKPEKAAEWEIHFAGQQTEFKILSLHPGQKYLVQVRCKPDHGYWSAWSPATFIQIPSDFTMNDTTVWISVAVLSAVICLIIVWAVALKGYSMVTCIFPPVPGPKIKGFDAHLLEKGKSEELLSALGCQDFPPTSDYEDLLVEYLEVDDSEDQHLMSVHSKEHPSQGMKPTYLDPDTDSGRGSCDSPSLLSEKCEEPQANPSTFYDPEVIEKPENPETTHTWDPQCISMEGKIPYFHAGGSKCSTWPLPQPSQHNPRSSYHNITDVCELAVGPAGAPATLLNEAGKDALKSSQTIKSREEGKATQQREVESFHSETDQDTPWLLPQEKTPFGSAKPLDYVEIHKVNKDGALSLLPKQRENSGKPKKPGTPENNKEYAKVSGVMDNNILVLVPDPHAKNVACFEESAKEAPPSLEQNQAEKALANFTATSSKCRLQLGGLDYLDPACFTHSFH

[3] = target: cyno PRLR on Baf3-cyPRLR cells (cyno); assay: cell-based or functional assay
[4] = target: T4, mouse PRLR on Baf3-mPRLR cells (mouse, UniProt Q08501 20-608); assay: cell-based or functional assay
T4 sequence (looked up): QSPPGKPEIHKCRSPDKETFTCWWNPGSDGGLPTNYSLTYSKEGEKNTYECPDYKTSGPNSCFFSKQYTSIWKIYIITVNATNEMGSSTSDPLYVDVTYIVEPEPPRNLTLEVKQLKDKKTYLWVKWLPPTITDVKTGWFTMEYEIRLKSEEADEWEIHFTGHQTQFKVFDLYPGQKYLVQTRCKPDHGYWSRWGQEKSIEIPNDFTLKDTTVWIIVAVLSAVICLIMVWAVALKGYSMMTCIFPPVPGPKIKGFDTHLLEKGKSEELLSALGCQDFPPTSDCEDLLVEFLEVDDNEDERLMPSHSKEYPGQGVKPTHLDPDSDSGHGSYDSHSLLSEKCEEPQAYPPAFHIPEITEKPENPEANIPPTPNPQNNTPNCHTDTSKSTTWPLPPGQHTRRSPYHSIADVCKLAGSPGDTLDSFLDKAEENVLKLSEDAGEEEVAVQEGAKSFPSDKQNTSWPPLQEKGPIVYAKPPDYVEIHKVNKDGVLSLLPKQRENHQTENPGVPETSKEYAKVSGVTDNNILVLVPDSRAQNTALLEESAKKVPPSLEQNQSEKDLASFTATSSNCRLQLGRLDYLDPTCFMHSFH

B1: Ab44 (antibody, human IgG1, kappa, V domains shown)
VH: EVQLVQSGAEVKKPGASVKVSCKASGYTFTDYNIHWVRQAPGQGLEWMGYIYPNNDGTGYNQKFKSRVTMTTDTSTSTAYMELRSLRSDDTAVYYCARGDGNYVGDMDYWGQGTTVTVSS
VL: DIQMTQSPSSLSASVGDRVTITCRASENIYSYLAWYQQKPGKAPKLLIYNAKTLAEGVPSRFSGSGSGTDFTLTISSLQPEDFATYYCQHHYATPFTFGQGTKLEIKR
notes: humanized from Ab8; G1; also called Ab3 HC.1 and Ab3 LC.1
EC50 [1]: 0.0945 nM | EC50 [2]: 0.0435 nM | Baf3-hPRLR proliferation IC50 (human PRLR on cells): 0.3 µg/mL | Baf3-cyPRLR proliferation IC50 [3]: 1.76 µg/mL | Baf3-mPRLR proliferation IC50 [4]: > 30 µg/mL

B2: Ab52 (antibody, human IgG1, kappa, V domains shown)
VH: EVQLVQSGAEVKKPGASVKVSCKASGYTFTDYNIHWVRQAPGQGLEWIGYIYPNNDGTGYAQKLQGRVTMTVDTSTSTAYMELRSLRSDDTAVYYCARGDGNYVGDMDYWGQGTTVTVSS
VL: DIQMTQSPSSLSASVGDRVTITCRASENIYSYLAWYQQKPGKAPKLLVYNAKTLAEGVPSRFSGSGSGTDFTLTISSLQPEDFATYYCQHHYATPFTFGQGTKLEIKR
notes: humanized from Ab8; G1; also called Ab3 HC.1b and Ab3 LC.1b
EC50 [2]: 0.0913 nM | Baf3-hPRLR proliferation IC50 (human PRLR on cells): 0.51 µg/mL | Baf3-cyPRLR proliferation IC50 [3]: 305 µg/mL | Baf3-mPRLR proliferation IC50 [4]: > 30 µg/mL

B3: Ab47 (antibody, human IgG1, kappa, V domains shown)
VH: EVQLVQSGAEVKKPGASVKVSCKASGYTFTDYNIHWVRQAPGQGLEWIGYIYPNNDGTGYNQKFKSRATLTVDNSTSTAYMELRSLRSDDTAVYYCARGDGNYVGDMDYWGQGTTVTVSS
VL: DIQMTQSPSSLSASVGDRVTITCRASENIYSYLAWYQQKPGKAPKLLIYNAKTLAEGVPSRFSGSGSGTDFTLTISSLQPEDFATYYCQHHYATPFTFGQGTKLEIKR
notes: humanized from Ab8; G1; also called Ab3 HC.1a and Ab3 LC.1
EC50 [1]: 0.119 nM | EC50 [2]: 0.0819 nM | Baf3-hPRLR proliferation IC50 (human PRLR on cells): 0.4 µg/mL | Baf3-cyPRLR proliferation IC50 [3]: 3.01 µg/mL | Baf3-mPRLR proliferation IC50 [4]: > 30 µg/mL

B4: Ab51 (antibody, human IgG1, kappa, V domains shown)
VH: EVQLVQSGAEVKKPGASVKVSCKASGYTFTDYNIHWVRQAPGQGLEWIGYIYPNNDGTGYAQKLQGRVTMTVDTSTSTAYMELRSLRSDDTAVYYCARGDGNYVGDMDYWGQGTTVTVSS
VL: DIQMTQSPSSLSASVGDRVTITCRASENIYSYLAWYQQKPGKPPKLLVYNAKTLAEGVPSRFSGSGSGTDFTLTISSLQPEDFATYYCQHHYATPFTFGQGTKLEIKR
notes: humanized from Ab8; G1; also called Ab3 HC.1b and Ab3 LC.1a
EC50 [2]: 0.287 nM | Baf3-hPRLR proliferation IC50 (human PRLR on cells): 0.55 µg/mL | Baf3-cyPRLR proliferation IC50 [3]: 100 µg/mL | Baf3-mPRLR proliferation IC50 [4]: > 30 µg/mL

B5: Ab50 (antibody, human IgG1, kappa, V domains shown)
VH: EVQLVQSGAEVKKPGASVKVSCKASGYTFTDYNIHWVRQAPGQGLEWIGYIYPNNDGTGYAQKLQGRVTMTVDTSTSTAYMELRSLRSDDTAVYYCARGDGNYVGDMDYWGQGTTVTVSS
VL: DIQMTQSPSSLSASVGDRVTITCRASENIYSYLAWYQQKPGKAPKLLIYNAKTLAEGVPSRFSGSGSGTDFTLTISSLQPEDFATYYCQHHYATPFTFGQGTKLEIKR
notes: humanized from Ab8; G1; also called Ab3 HC.1b and Ab3 LC.1
EC50 [2]: 0.109 nM | Baf3-hPRLR proliferation IC50 (human PRLR on cells): 0.51 µg/mL | Baf3-cyPRLR proliferation IC50 [3]: 41.6 µg/mL | Baf3-mPRLR proliferation IC50 [4]: > 30 µg/mL

Reference: patent publication US20170022281A1 (AbbVie / Abbott, published 2017)
